For data set [1], the target named is T1, PF14_0633 AP2 domain (Plasmodium falciparum, UniProt Q8IKH2 63-123). The experiment in a line: size exclusion chromatography. In general terms: SEC sorts molecules by how far they enter the pores of the column.
In data set [2] the target is T1, PF14_0633 AP2 domain. The experiment in a line: X-ray crystallography.

B1: non-cognate 17bp (dsDNA)
DNA 1: TGTGCATAGTGGTGCGA
DNA 2: TCGCACCACTATGCACA
B1: the binding result with PF14_0633 AP2 domain [1] is “binds”.

B2: cognate 8bp (dsDNA)
DNA 1: TGCATGCA
DNA 2: TGCATGCA
Regarding B2, the binding result in the data set with PF14_0633 AP2 domain [2] is reported as “binds”.
